Assay type in all cases: biochemical
Data set [1] is described as follows: homoserine transaminase activity, coupled dehydrogenase assay. To be noted: measured at 50 mM homoserine; 2-oxoglutarate as acceptor. The protocol:
(§1) Enzymatic assays: Transaminase activity of several candidate aminotransferases was quantified with 2-oxoglutarate as the amino group acceptor. Transaminase reactions were carried out using homoserine and the preferred amino acid of the enzymes. The reactions were followed by the amino acid-dependent oxidation of NADH in the coupled dehydrogenase reaction.
(§2) Transaminase Assays (Reaction Scheme)
(§3) Transaminase: Amino acid+2-oxoglutarate→2-oxo-acid+glutamate
(§4) Dehydrogenase: 2-oxo-acid+NADH→2-hydroxy-acid+NAD^+
The reaction mixture contained 60 mM Hepes (pH 7), 50 mM potassium chloride, 5 mM MgCl2, 4 mM 2-oxoglutarate, 0.1 mM pyridoxal-5′-phosphate (PLP), 0.25 mM NADH, (optionally 5 mM fructose-1,6-bisphosphate) (all products from Sigma), 4 Units/mL of auxiliary 2-hydroxyacid dehydrogenase, and appropriate amounts of purified aminotransferase or cell extract. The auxiliary dehydrogenase enzyme was purified PanE from L. lactis in case of the amino acids phenylalanine and leucine (Chambellon, Rijnen, Lorquet, Gitton, van HylckamaVlieg, Wouters, & Yvon, 2009), malate dehydrogenase (Sigma) in case of aspartate, and rabbit muscle (L)-lactate dehydrogenase (Sigma) when homoserine was used as the starting substrate. Reactions were started by adding 50 mM of the amino acid.
(§5) Enzymatic assays were carried out at 37° C. in 96-well flat bottomed microtiter plates in a final volume of 250 μL. The reactions were followed by the characteristic absorption of NAD(P)H at 340 nm (εNADPH=6.22 mM^−1 cm^−1) in a microplate reader (BioRad 680XR).

A short description of data set [2]: transaminase activity on preferred amino acid (L), coupled dehydrogenase assay. The conditions noted are these: superscript (L); 50 mM amino acid; 2-oxoglutarate as acceptor. The protocol: as §1, §2, §3, §4
(§6) The reaction mixture contained 60 mM Hepes (pH 7), 50 mM potassium chloride, 5 mM MgCl2, 4 mM 2-oxoglutarate, 0.1 mM pyridoxal-5′-phosphate (PLP), 0.25 mM NADH, (optionally 5 mM fructose-1,6-bisphosphate) (all products from Sigma), 4 Units/mL of auxiliary 2-hydroxyacid dehydrogenase, and appropriate amounts of purified aminotransferase or cell extract. […]
as §5

Data set [3] is described as follows: pyruvate reductase activity, NADH absorption at 340 nm. To be noted: L. lactis Ll-LdhA mutants. The protocol: (§7) Enzymatic assays: The reaction mixture contained 60 mM Hepes (pH 7), 50 mM potassium chloride, 5 mM MgCl2, 0.25 mM NADH, (optionally 5 mM fructose-1,6-bisphosphate) (all products from Sigma), and appropriate amounts of purified malate or lactate dehydrogenase or cell extract. Reactions were started by adding appropriate amounts of 2-oxo-4-hydroxybutyrate (OHB), pyruvate, or oxaloacetate (OAA). Enzymatic assays were carried out at 37° C. in 96-well flat bottomed microtiter plates in a final volume of 250 μL. The reactions were followed by the characteristic absorption of NADH at 340 nm (εNADH=6.22 mM^−1 cm^−1) in a microplate reader (BioRad 680XR).

Data set [4] in a line: OHB reductase activity, NADH absorption at 340 nm. The conditions noted are these: L. lactis Ll-LdhA mutants. The protocol: as §7
OHB was synthesized by incubating 125 mM homoserine with snake venom (L)-amino acid oxidase (1.25 U/mL, Sigma) and catalase (4400 U/mL, Sigma) in 100 mM Tris buffer at pH 7.8 for 90 min at 37° C. Subsequently, the reaction mixture was purified on an Amicon™ Ultra centrifugal filter with a cut-off of 10 kDa to eliminate the enzymes (method adapted from Wellner & Lichtenberg, 1971).
OHB was quantified by mixing 100 μL of the tested solution with 1 mL of a solution containing 1 M sodium arsenate and 1 M boric acid at pH 6.5. The mixture was incubated at room temperature for 30 min and the absorbance at 325 nm was used to quantify OHB. The relation between absorbance and concentration of the ketone was calibrated using pyruvate solutions of known concentrations (method adapted from (Wellner & Lichtenberg, 1971)). The typical OHB yield of the method was 90%.

Data set [5] in a line: transaminase activity on preferred amino acid (A), coupled dehydrogenase assay. The conditions noted are these: superscript (A); 50 mM amino acid; 2-oxoglutarate as acceptor. The protocol:
as §1, §2, §3, §4, §6, §5

Positions count from the first letter of the chain named. Names and notes keep the numbering of the source.

B1: Ll-BcaT: branched-chain-amino-acid transaminase from Lactococcus lactis, SEQ ID No. 68 (protein, listed as Lactococcus lactis)
chain: MAINLDWENLGFSYRNLPFRYIARFKDGKWSAGELTGDNQLHISESSPALHYGQQGFEGLKAYRTKDGSIQLFRPDQNAARLQNTARRLCMAEVPTEMFIDAVKQVVKANEDFVPPYGTGATLYLRPLLIGVGDVIGVKPADEYIFTVFAMPVGSYFKGGLAPSKFVISRDYDRAAPLGTGGAKVGGNYAASLQAEVGAKASGYADAIYLDPSTHTKIEEVGAANFFGITADNEFITPLSPSILPSITKYSLLYLAEHRLGLKAIEGEVYAKDLGKFVEAGACGTAAIISPIGRIDDGEDSYIFHSETEVGPTVKRLYDELVGIQFGDVEAPEGWIVKVD
Regarding B1, the “Max. specific activity on Homoserine” value in data set [1] is reported as 0.028 μmol/(min mgprot). In data set [2], the “Max. specific activity on preferred amino acid (L)” value is recorded as 30.39^(L) μmol/(min mgprot).

B2: Q85N: L. lactis lactate dehydrogenase A, Ll-LdhA, mutant Q85N, SEQ ID No. 30 (protein, listed as Lactococcus lactis)
chain: MADKQRKKVILVGDGAVGSSYAFALVNQGIAQELGIVDLFKEKTQGDAEDLSHALAFTSPKKIYSADYSDASDADLVVLTSGAPNKPGETRLDLVEKNLRITKDVVTKIVASGFKGIFLVAANPVDILTYATWKFSGFPKNRVVGSGTSLDTARFRQALAEKVDVDARSIHAYIMGEHGDSEFAVWSHANVAGVKLEQWFQENDYLNEAEIVELFESVRDAAYSIIAKKGATFYGVAVALARITKAILDDEHAVLPVSVFQDGQYGVSDCYLGQPAVVGAEGVVNPIHIPLNDAEMQKMEASGAQLKAIIDEAFAKEEFASAVKN
For B2, in data set [3], the “Max. specific activity, Pyruvate” value worked out at 184 µmol/mg/min. Besides, in data set [4], the “Max. specific activity, OHB” value was determined as 63.9 µmol/mg/min.

B3: Q85NI226V: L. lactis lactate dehydrogenase A, Ll-LdhA, mutant Q85N I226V, SEQ ID No. 32 (protein, listed as Lactococcus lactis)
chain: B2 chain with I226V
Consider B3, for which the “Max. specific activity, Pyruvate” value in data set [3] stood at 11.5 µmol/mg/min. Besides, the “Max. specific activity, OHB” value in data set [4] is 4.9 µmol/mg/min.

B4: Ll-AraT: aromatic-amino-acid transaminase from L. lactis, SEQ ID No. 66 (protein, listed as Lactococcus lactis)
chain: MDLLKKFNPNLDKIEISLIRQFDQQVSSIPDVIKLTLGEPDFYTPEHVKQAGIVAIENNQSHYTGMAGLLELRQAASEFMNKKYGLSYAAEDEILVTVGVTEAISSVLLSILVAGDEVLIPAPAYPGYEPLITLAGGSLVEIDTRANDFVLTPEMLEQAIVEREGKVKAVILNYPANPTGVTYNRGQIKALAEVLKKHEVFVIADEVYSELNYTDQPHVSIAEYAPEQTIVLNGLSKSHAMTGWRIGLIFAARELVAQIIKTHQYLVTSASTQSQFAAIEALKNGAYDALPMKKEYLKRRDYIIEKMSDLGFKIIEPDGAFYIFAKIPADLEQDSFKFAVDFAKENAVAIIPGIAFGQYGEGFVRLSYAASMDMIEQAMARLTDYVTKKRG
Regarding B4, in data set [1], the “Max. specific activity on Homoserine” value is recorded as 0.109 μmol/(min mgprot).

B5: Ec-IlvE: branched-chain-amino-acid transaminase from Escherichia coli, SEQ ID No. 60 (protein, listed as Escherichia coli)
chain: MTTKKADYIWFNGEMVRWEDAKVHVMSHALHYGTSVFEGIRCYDSHKGPVVFRHREHMQRLHDSAKIYRFPVSQSIDELMEACRDVIRKNNLTSAYIRPLIFVGDVGMGVNPPAGYSTDVIIAAFPWGAYLGAEALEQGIDAMVSSWNRAAPNTIPTAAKAGGNYLSSLLVGSEARRHGYQEGIALDVNGYISEGAGENLFEVKDGVLFTPPFTSSALPGITRDAIIKLAKELGIEVREQVLSRESLYLADEVFMSGTAAEITPVRSVDGIQVGEGRCGPVTKRIQQAFFGLFTGETEDKWGWLDQVNQ
As to B5, the “Max. specific activity on Homoserine” value in data set [1] is listed as 0.077 μmol/(min mgprot). Moreover, in data set [2], the “Max. specific activity on preferred amino acid (L)” value is recorded as 10.3^(L) μmol/(min mgprot).

B6: Sc-ARO8: aromatic-amino-acid transaminase from Saccharomyces cerevisiae, SEQ ID No. 70 (protein, listed as Saccharomyces cerevisiae)
chain: MTLPESKDFSYLFSDETNARKPSPLKTCIHLFQDPNIIFLGGGLPLKDYFPWDNLSVDSPKPPFPQGIGAPIDEQNCIKYTVNKDYADKSANPSNDIPLSRALQYGFSAGQPELLNFIRDHTKIIHDLKYKDWDVLATAGNTNAWESTLRVFCNRGDVILVEAHSFSSSLASAEAQGVITFPVPIDADGIIPEKLAKVMENWTPGAPKPKLLYTIPTGQNPTGTSIADHRKEAIYKIAQKYDFLIVEDEPYYFLQMNPYIKDLKEREKAQSSPKQDHDEFLKSLANTFLSLDTEGRVIRMDSFSKVLAPGTRLGWITGSSKILKPYLSLHEMTIQAPAGFTQVLVNATLSRWGQKGYLDWLLGLRHEYTLKRDCAIDALYKYLPQSDAFVINPPIAGMFFTVNIDASVHPEFKTKYNSDPYQLEQSLYHKVVERGVLVVPGSWFKSEGETEPPQPAESKEVSNPNIIFFRGTYAAVSPEKLTEGLKRLGDTLYEEFGISK
On to B6, for which the “Max. specific activity on Homoserine” value in data set [1] is 0.076 μmol/(min mgprot).

B7: Ec-AspC: aspartate transaminase from E. coli, SEQ ID No. 64 (protein, listed as Escherichia coli)
chain: MFENITAAPADPILGLADLFRADERPGKINLGIGVYKDETGKTPVLTSVKKAEQYLLENETTKNYLGIDGIPEFGRCTQELLFGKGSALINDKRARTAQTPGGTGALRVAADFLAKNTSVKRVWVSNPSWPNHKSVFNSAGLEVREYAYYDAENHTLDFDALINSLNEAQAGDVVLFHGCCHNPTGIDPTLEQWQTLAQLSVEKGWLPLFDFAYQGFARGLEEDAEGLRAFAAMHKELIVASSYSKNFGLYNERVGACTLVAADSETVDRAFSQMKAAIRANYSNPPAHGASVVATILSNDALRAIWEQELTDMRQRIQRMRQLFVNTLQEKGANRDFSFIIKQNGMFSFSGLTKEQVLRLREEFGVYAVASGRVNVAGMTPDNMAPLCEAIVAVL
Turning to B7, the “Max. specific activity on preferred amino acid (A)” value in data set [5] is recorded as 74.031^(A) μmol/(min mgprot). In addition, the “Max. specific activity on Homoserine” value in data set [1] was 0.082 μmol/(min mgprot).

B8: Ec-TyrB: aromatic-amino-acid transaminase from E. coli, SEQ ID No. 62 (protein, listed as Escherichia coli)
chain: VFQKVDAYAGDPILTLMERFKEDPRSDKVNLSIGLYYNEDGIIPQLQAVAEAEARLNAQPHGASLYLPMEGLNCYRHAIAPLLFGADHPVLKQQRVATIQTLGGSGALKVGADFLKRYFPESGVWVSDPTWENHVAIFAGAGFEVSTYPWYDEATNGVRFNDLLATLKTLPARSIVLLHPCCHNPTGADLTNDQWDAVIEILKARELIPFLDIAYQGFGAGMEEDAYAIRAIASAGLPALVSNSFSKIFSLYGERVGGLSVMCEDAEAAGRVLGQLKATVRRNYSSPPNFGAQVVAAVLNDEALKASWLAEVEEMRTRILAMRQELVKVLSTEMPERNFDYLLNQRGMFSYTGLSAAQVDRLREEFGVYLIASGRMCVAGLNTANVQRVAKAFAAVM
On to B8, for which, in data set [1], the “Max. specific activity on Homoserine” value is given as 0.057 μmol/(min mgprot).
